Among the test systems are XTN TALEN 1 left monomer; XTN TALEN 3 left monomer; XTN TALEN 2 left monomer.
Experiment in all cases: cell_activity
What all share (details): Cel-1 assay; activity of the TALEN pair

For data set [1], the system named is XTN TALEN 1 right monomer.
In data set [2] the test system is XTN TALEN 3 right monomer.
Data set [3] concerns XTN TALEN 2 right monomer.

For “TATGCGGACCTTTATCTATGGCTGGAATTTCCTAAGTGCAGGGAGCCACA (double strand) [TALEN 1 target, left half-site]”, the activity in the data set with XTN TALEN 1 left monomer was 5%. The sequence “TATGCGGACCTTTATCTATGGCTGGAATTTCCTAAGTGCAGGGAGCCACA (double strand) [TALEN 1 target, right half-site]” came in with an activity in data set [1] of 5%. As to “TCTGCCAACCTCACATACAGTATGTGGTTTAGTCATTGAGCAAATGCA (double strand) [TALEN 3 target, left half-site]”, the activity with XTN TALEN 3 left monomer came to 3%.

As to “TCTGCCAACCTCACATACAGTATGTGGTTTAGTCATTGAGCAAATGCA (double strand) [TALEN 3 target, right half-site]”, in data set [2], the activity was 3%.

Turning to “TGCAGTATGCGGACCTTTATCTATGGCTGGAATTTCCTAAGTGCAGGGA (double strand) [TALEN 2 target, left half-site]”, the activity in the data set with XTN TALEN 2 left monomer came out at 9%. With “TGCAGTATGCGGACCTTTATCTATGGCTGGAATTTCCTAAGTGCAGGGA (double strand) [TALEN 2 target, right half-site]”, the activity in data set [3] turned out to be 9%.
